Test results reported in article PMC11452399 (Nature Communications, 2024).

Target: human ferritin heavy chain (FTH1) (human, UniProt P02794)
Experiment: ELISA

human ferritin heavy chain (FTH1), sequence (P02794 whole entry): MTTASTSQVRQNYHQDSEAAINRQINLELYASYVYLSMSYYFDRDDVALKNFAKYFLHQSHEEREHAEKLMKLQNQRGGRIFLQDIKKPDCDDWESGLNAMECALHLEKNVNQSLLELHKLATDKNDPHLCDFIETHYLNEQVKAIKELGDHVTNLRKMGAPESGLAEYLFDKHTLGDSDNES

Binder: DSFQVIKNSPLSEWLI [GST-Peptide WT (NCOA4 484-499)]
- EC50: 288 nM
